From paper PMC12196045

molecular target: T1, OmpR-N6His (Xenorhabdus nematophila YL001) (UniProt D3VF01); experiment: EMSA; conditions: EMSA: 5x buffer 250 mM Tris, 250 mM KCl, 0.5 mM DTT, 50 mM MgCl2, 25% glycerol, pH 8.0 (1x: 50 mM Tris, 50 mM KCl, 0.1 mM DTT, 10 mM MgCl2, 5% glycerol); 30 min
T1 sequence: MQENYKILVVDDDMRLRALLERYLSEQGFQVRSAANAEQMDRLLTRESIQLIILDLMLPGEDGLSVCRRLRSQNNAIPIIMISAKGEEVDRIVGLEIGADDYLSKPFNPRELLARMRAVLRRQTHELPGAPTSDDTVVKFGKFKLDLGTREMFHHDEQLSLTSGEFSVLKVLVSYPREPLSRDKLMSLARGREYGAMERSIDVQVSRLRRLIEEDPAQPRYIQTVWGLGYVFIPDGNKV

For “CCGGCCTTTGGTAATAAATCAGGATAATTGAGTGATGTAAACGGGAAAACAAGGGGAAAAAACCAAAGCATAAGCAATGATTGCCAATACGGTTAATGGCCTTAAAATACATGTGGTTAGTTTCTATTGAATATGGGGTTTCGGTAAAAGTCATGGATATTGCGGGCATGGAGCATCTTGGGAGCTGAAAC (double strand) [PompR191]”, which binding is on record?
The binding was “no binding”.

How did the binding turn out when “TAATTCTTCCTCCAAGAGCAAAATACGATAACAAACTCCGCTATTCCATGACTTTACGTTCTTTTACATGCTCTGACGCTAGTTTGCAGCCGCAGGGTTATAGTTATCCACACTGAATCGAATAGAGCTATTCGAGAAAGCGGAGAAATTTAATGC (double strand) [PcpxR156]” was run?
Its binding is “no binding”.

“TACGGCTACGTAAATAATAAAGCATTGGTTATGTCTGTTTGTTTTTTTGTACAAGGACGAATCTCAATTTAATTTCGAAAAATTGAGGTCATTGATCTTATTAATGGGTAGGTTGTTTACGATGTCAAAATGTTGCATTTGAAAACAGACAATCTTCCATTATTTAATGAGATCACTGCGATAAGTTTAGTGGAGTGAAATA (double strand) [PleuO202]” was tested. Which binding did it give?
Its binding is “no binding”.

With “TTTGGATTGCATAAATTTTGTTAAGAAAGGAGAAAAATAAAACCCCATGATAGTCTAAATAGTAAAAAAATGAAGTAAACCTTTGCCCTATTTAATAGAGTAGAGTAATGTCACAATCGGTATTATTTTATTTGATACTGCTGAAGTAAAAACACCAGGTTAGTTAGTAATTAAAATCAAAAAAAAGTGATGAATAAACAATG (double strand) [PlrhA203]” as the sequence, how does the binding read?
Its binding is “no binding”.
